Laboratory results: publication PMC11246235

Target: CST (FLAG-Ctc1, Stn1, HA-Ten1) purified from HEK293T/17 cells (human) (UniProt Q2NKJ3)
Assay: co-IP

- stoichiometry of Polα/primase to CST: 20%
Substance: Polα/primase (endogenous), P09884 1-1462; Q14181 1-598; P49642 1-420; P49643 1-509
